Test results as given in patent US9988424.
Read-outs that look alike come from different tables or passages of the source.

Experiments:
[1] = target: Env of AE.CM235 on infected CD4+ T cells (HIV-1)
[2] = target: Env of 703357.2.Q169K virus (HIV-1); test: cell-based or functional assay
[3] = target: Env of AE.CM244 virus (HIV-1); test: cell-based or functional assay
[4] = target: Env of Ce1176_A3.LucR.T2A.ecto virus (HIV-1); test: cell-based or functional assay
[5] = target: Env of AE.92TH023 virus (HIV-1); test: cell-based or functional assay
[6] = target: Env of 703357.c02 virus (HIV-1); test: cell-based or functional assay
[7] = target: Env of Du151.2.LucR.T2A.ecto virus (HIV-1); test: cell-based or functional assay
[8] = target: Env of 703357.2.Q169KI181L virus (HIV-1); test: cell-based or functional assay
[9] = target: Env of 703357.2.Q169KR170QI181L virus (HIV-1); test: cell-based or functional assay
[10] = target: Env of SC22.3C2.LucR.T2A.ecto virus (HIV-1); test: cell-based or functional assay
[11] = target: Env of CM235-2.LucR.T2A.ecto virus (HIV-1); test: cell-based or functional assay
[12] = target: Env of TH023.6.I181L virus (HIV-1); test: cell-based or functional assay
[13] = target: Env of 644039.c01b-CM235LucR.T2A.11 virus (HIV-1); test: cell-based or functional assay
[14] = target: Env of 92TH023 K169Q virus (HIV-1); test: cell-based or functional assay
[15] = target: Env of 427299.c12 virus (HIV-1); test: cell-based or functional assay
[16] = target: Env of RHPA.LucR.T2A.ecto virus (HIV-1); test: cell-based or functional assay
[17] = target: Env of 703357.2.Q169KR170Q virus (HIV-1); test: cell-based or functional assay
[18] = target: Env of Ce1086_B2.LucR.T2A.ecto virus (HIV-1); test: cell-based or functional assay
[19] = target: Env of WITO.LucR.T2A.ecto virus (HIV-1); test: cell-based or functional assay
[20] = target: Env of CM244NW.6.I181L virus (HIV-1); test: cell-based or functional assay
[21] = target: Env of 427299.c12.KL.Q169K/I181L virus (HIV-1); test: cell-based or functional assay
[22] = target: Env of 1051.C22.LucR.T2A.ecto virus (HIV-1); test: cell-based or functional assay
[23] = target: Env of Du422.1.LucR.T2A.ecto virus (HIV-1); test: cell-based or functional assay
[24] = target: Env of 427299.c12.H81L virus (HIV-1); test: cell-based or functional assay
[25] = target: Env of 703357.2.I181L virus (HIV-1); test: cell-based or functional assay
[26] = target: Env of CM244.c01.ETH2220LucR.T2A.4 virus (HIV-1); test: cell-based or functional assay
[27] = target: Env of CM244NW.4.K169Q virus (HIV-1); test: cell-based or functional assay
[28] = target: Env of 427299.c12.Q169K virus (HIV-1); test: cell-based or functional assay
[29] = target: AE.A244 V1V2 Tags (HIV-1)
A.Q23 V1V2 tags (HIV-1) = test: ELISA
[30] = target: AE.A244 V1V2 Tags (HIV-1); test: ELISA
AE.A244 gp120 (HIV-1) [31] = test: ELISA
[32] = target: AE.A244 gD+ gp120 (HIV-1); test: ELISA
[33] = target: AE.A244 gp120 delta 11 (HIV-1); test: ELISA
B.6240 gp140C (HIV-1) = test: ELISA
[34] = target: 92TH023 V2 cyclic peptide (HIV-1); test: RPMI 8866 cell adhesion to coated peptide, mAb 10 ug/ml
[35] = target: AE.A244 gp120 D11/K169V/V172E/H173Y (HIV-1); test: ELISA
[36] = target: AE.427299 gp120D11/Q169K (HIV-1); test: ELISA
[37] = target: AE.A244 gp120D11/K169V (HIV-1); test: ELISA
[38] = target: AE.A244 gp120 delta 11 (HIV-1); test: ELISA; remark: listed apart in the source
[39] = target: AE.427299 gp120D11 (HIV-1); test: ELISA
[40] = target: AE.A244 V1V2 Tags (HIV-1); test: ELISA; remark: listed apart in the source
AE.A244 gp120 (HIV-1) [41] = target: AE.A244 gp120 (HIV-1)
C.1086 gp120 Δ7 (HIV-1) = test: ELISA
[42] = target: AE.A244 gp120 N160K (HIV-1); test: ELISA
[43] = target: J08 C.97ZA012V1V2N156QN160Q (HIV-1); test: ELISA
[44] = target: C.CAP206 gp140, natively deglycosylated (HIV-1); test: ELISA
α4β7 on RPMI 8866 cells [45] = target: α4β7 on RPMI 8866 cells (UniProt P13612); test: cells preincubated with ACT-1, adhesion to MADCAM-1 (competitor; 2 ug/ml)
α4β7 on RPMI 8866 cells [46] = target: α4β7 on RPMI 8866 cells (UniProt P13612)
B.JRFL gp140CF (HIV-1) = B.JRFL gp140CF (HIV-1) (UniProt P20871); test: ELISA
[47] = target: Env of AE.CM235 on infected CD4+ T cells (HIV-1); test: flow cytometry on IMC CM235-infected CD4+ T cells, 10 ug/ml, negative control

CH59 (antibody), sequence (VH): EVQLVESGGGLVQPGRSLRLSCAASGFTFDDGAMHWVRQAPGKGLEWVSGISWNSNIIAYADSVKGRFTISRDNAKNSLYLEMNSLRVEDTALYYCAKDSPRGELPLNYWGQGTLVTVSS
CH59 (antibody), sequence (VL): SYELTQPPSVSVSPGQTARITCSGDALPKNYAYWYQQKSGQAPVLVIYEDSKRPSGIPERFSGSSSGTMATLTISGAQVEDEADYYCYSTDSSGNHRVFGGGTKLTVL
CH01 (antibody), sequence (heavy, form in doubt): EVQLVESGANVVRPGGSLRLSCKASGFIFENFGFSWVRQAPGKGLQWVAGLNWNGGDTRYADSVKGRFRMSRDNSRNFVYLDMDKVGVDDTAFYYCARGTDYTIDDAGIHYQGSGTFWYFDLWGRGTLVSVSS
CH01 (antibody), sequence (light, form in doubt): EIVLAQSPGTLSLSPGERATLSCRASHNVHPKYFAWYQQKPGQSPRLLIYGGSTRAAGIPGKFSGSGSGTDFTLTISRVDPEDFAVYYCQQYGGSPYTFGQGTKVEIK

A32 (antibody)
% positive cells [1]: 94%
FITC MFI [1]: 19900

CH01 (antibody)
ID50 assayed in TZM-bl cells, 703357.2.Q169K [2]: > 25 µg/mL
ID50 assayed in TZM-bl cells, CM244.ec1 [3]: 0.02 µg/mL
ID50 assayed in A3R5.7 cells, Ce1176 A3.LucR.T2A.ecto [4]: 0.04 µg/mL
ID50 assayed in TZM-bl cells, TH023.6 [5]: > 25 µg/mL
ID50 assayed in TZM-bl cells, 703357.c02 [6]: > 25 µg/mL
ID50 assayed in A3R5.7 cells, Du151.2.LucR.T2A.ecto [7]: 1.51 µg/mL
ID50 assayed in TZM-bl cells, 703357.2.Q169KI181L [8]: > 25 µg/mL
ID50 assayed in TZM-bl cells, 703357.2.Q169KR170QI181L [9]: > 25 µg/mL
ID50 assayed in A3R5.7 cells, SC22.3C2.LucR.T2A.ecto [10]: > 25 µg/mL
ID50 assayed in A3R5.7 cells, CM235-2.LucR.T2A.ecto [11]: 0.04 µg/mL
ID50 assayed in TZM-bl cells, TH023.6.I181L [12]: > 25 µg/mL
ID50 assayed in A3R5.7 cells, 644039.c01b-CM235LucR.T2A.11 [13]: > 25 µg/mL
ID50 assayed in TZM-bl cells, TH023.6.K169Q [14]: 22.8 µg/mL
ID50 assayed in TZM-bl cells, 427299.c12 [15]: 0.09 µg/mL
ID50 assayed in A3R5.7 cells, RHPA.LucR.T2A.ecto [16]: 8.2 µg/mL
ID50 assayed in TZM-bl cells, 703357.2.Q169KR170Q [17]: > 25 µg/mL
ID50 assayed in A3R5.7 cells, Ce1086 B2.LucR.T2A.ecto [18]: > 25 µg/mL
ID50 assayed in A3R5.7 cells, WITO.LucR.T2A.ecto [19]: 0.05 µg/mL
ID50 assayed in TZM-bl cells, CM244NW.6.I181L [20]: 0.03 µg/mL
ID50 assayed in TZM-bl cells, 427299.c12.KL.Q169K/I181L [21]: 0.15 µg/mL
ID50 assayed in A3R5.7 cells, 1051.C22.LucR.T2A.ecto [22]: > 25 µg/mL
ID50 assayed in A3R5.7 cells, Du422.1.LucR.T2A.ecto [23]: > 25 µg/mL
ID50 assayed in TZM-bl cells, 427299.c12.H81L [24]: 0.16 µg/mL
ID50 assayed in TZM-bl cells, 703357.2.I181L [25]: > 25 µg/mL
ID50 assayed in A3R5.7 cells, CM244.c01.ETH2220LucR.T2A.4 [26]: 0.33 µg/mL
ID50 assayed in TZM-bl cells, CM244NW.4.K169Q [27]: 0.05 µg/mL
ID50 assayed in TZM-bl cells, 427299.c12.Q169K [28]: 0.18 µg/mL
Kd [29]: 334 nM
koff [29]: 0.0076 s⁻¹
kon [29]: 23000 M⁻¹ s⁻¹
EC50 (A.Q23 V1V2 tags (HIV-1)): > 66.7 nM
EC50 [30]: 8.9 nM
EC50 (AE.A244 gp120 (HIV-1) [31]): 1.3 nM
EC50 [32]: 0.9 nM
EC50 [33]: 0.47 nM
EC50 (B.6240 gp140C (HIV-1)): > 667 nM
% inhibition [34]: -11.2%
EC50 [35]: 0.93 µg/mL
EC50 [36]: > 10 µg/mL
EC50 [37]: 0.13 µg/mL
EC50 [38]: 0.35 µg/mL
EC50 [39]: > 10 µg/mL
EC50 [40]: 1.7 nM
IC50 (AE.A244 gp120 (HIV-1) [41]): 10 to 100 nM

CH59 (antibody)
EC50 (C.1086 gp120 Δ7 (HIV-1)): 0.07 nM
EC50 [42]: 0.04 nM
EC50 [43]: > 667 nM
EC50 [44]: > 667 nM

ACT-1 (antibody)
% inhibition (α4β7 on RPMI 8866 cells [45]): 71.3%
% inhibition (α4β7 on RPMI 8866 cells [46]): 53.3%

PG9 (antibody)
EC50 (B.JRFL gp140CF (HIV-1)): 273 nM
EC50 [44]: 279 nM
EC50 (B.6240 gp140C (HIV-1)): 0.3 nM

PG16 (antibody)
EC50 (B.6240 gp140C (HIV-1)): 10.3 nM

Synagis (antibody)
FITC MFI [1]: 3600
% of p24+ cells stained (background) [47]: 11%
